Results reported in patent US20190241648A1 (STATEN BIOTECHNOLOGY B V, published 2019).
Ends that are not written are not given here.

Key:
Test in all cases: peptide microarray
ApoC3 peptide … T44A = target: T1, ApoC3 peptide … T44A (human, not fully specified (bridges); also: cyclic constrained)
T1 peptide: ARGWVADGFSSLK
How it was run: (§1)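 Peptide microarrays of ApoC3-derived peptides incubated with antibody samples, then stained with goat anti-human IgG (Fc) DyLight680 (1:5000) and anti-HA DyLight800 (1:2000) control. Read-out by fluorescence scanning at intensities 7/7 (red/green); a secondary-only pre-stain checked background, HA frame peptides served as quality control.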

ApoC3 peptide … S49A = target: T2, ApoC3 peptide … S49A (human, not fully specified (bridges); also: cyclic constrained)
T2 peptide: ARGWVTDGFSALK
How it was run: as §1

ApoC3 peptide … R40C = target: T3, ApoC3 peptide … R40C (human, not fully specified (bridges); also: cyclic constrained)
T3 peptide: ACGWVTDGFSSLK
How it was run: as §1

ApoC3 peptide … W42D = target: T4, ApoC3 peptide … W42D (human, not fully specified (bridges); also: cyclic constrained)
T4 peptide: ARGDVTDGFSSLK
How it was run: as §1

ApoC3 peptide … F47D = target: T5, ApoC3 peptide … F47D (human, not fully specified (bridges); also: cyclic constrained)
T5 peptide: ARGWVTDGDSSLK
How it was run: as §1

ApoC3 peptide … S48D = target: T6, ApoC3 peptide … S48D (human, not fully specified; cyclic constrained)
T6 peptide: ARGWVTDGFDSLK
How it was run: as §1

ApoC3 peptide … V43E = target: T7, ApoC3 peptide … V43E (human, not fully specified; cyclic constrained)
T7 peptide: ARGWETDGFSSLK
How it was run: as §1

ApoC3 peptide … G41F = target: T8, ApoC3 peptide … G41F (human, also: cyclic constrained)
T8 peptide: ARFWVTDGFSSLK
How it was run: as §1

ApoC3 peptide … V43F = target: T9, ApoC3 peptide … V43F (human, not fully specified; cyclic constrained)
T9 peptide: ARGWFTDGFSSLK
How it was run: as §1

ApoC3 peptide … S48F = target: T10, ApoC3 peptide … S48F (human, not fully specified; cyclic constrained)
T10 peptide: ARGWVTDGFFSLK
How it was run: as §1

ApoC3 peptide … K51G = target: T11, ApoC3 peptide … K51G (human, thioether (positions not given here); also: cyclic constrained)
T11 peptide: ARGWVTDGFSSLG
How it was run: as §1

ApoC3 peptide … R40H = target: T12, ApoC3 peptide … R40H (human, not fully specified (bridges); also: cyclic constrained)
T12 peptide: AHGWVTDGFSSLK
How it was run: as §1

ApoC3 peptide … S49I = target: T13, ApoC3 peptide … S49I (human, cyclic constrained)
T13 peptide: ARGWVTDGFSILK
How it was run: as §1

ApoC3 peptide … A39K = target: T14, ApoC3 peptide … A39K (human, cyclic constrained)
T14 peptide: KRGWVTDGFSSLK
How it was run: as §1

ApoC3 peptide … L50K = target: T15, ApoC3 peptide … L50K (human, not fully specified; cyclic constrained)
T15 peptide: ARGWVTDGFSSKK
How it was run: as §1

ApoC3 peptide … T44L = target: T16, ApoC3 peptide … T44L (human, not fully specified (bridges); also: cyclic constrained)
T16 peptide: ARGWVLDGFSSLK
How it was run: as §1

ApoC3 peptide … V43M = target: T17, ApoC3 peptide … V43M (human, not fully specified; cyclic constrained)
T17 peptide: ARGWMTDGFSSLK
How it was run: as §1

ApoC3 peptide … F47M = target: T18, ApoC3 peptide … F47M (human, not fully specified (bridges); also: cyclic constrained)
T18 peptide: ARGWVTDGMSSLK
How it was run: as §1

ApoC3 peptide … V43N = target: T19, ApoC3 peptide … V43N (human, not fully specified; cyclic constrained)
T19 peptide: ARGWNTDGFSSLK
How it was run: as §1

ApoC3 peptide … T44P = target: T20, ApoC3 peptide … T44P (human, not fully specified (bridges); also: cyclic constrained)
T20 peptide: ARGWVPDGFSSLK
How it was run: as §1

ApoC3 peptide … K51P = target: T21, ApoC3 peptide … K51P (human, not fully specified; cyclic constrained)
T21 peptide: ARGWVTDGFSSLP
How it was run: as §1

ApoC3 peptide … A39Q = target: T22, ApoC3 peptide … A39Q (human, not fully specified (bridges); also: cyclic constrained)
T22 peptide: QRGWVTDGFSSLK
How it was run: as §1

ApoC3 peptide … W42Q = target: T23, ApoC3 peptide … W42Q (human, not fully specified (bridges); also: cyclic constrained)
T23 peptide: ARGQVTDGFSSLK
How it was run: as §1

ApoC3 peptide … L50Q = target: T24, ApoC3 peptide … L50Q (human, not fully specified (bridges); also: cyclic constrained)
T24 peptide: ARGWVTDGFSSQK
How it was run: as §1

ApoC3 peptide … W42R = target: T25, ApoC3 peptide … W42R (human, not fully specified (bridges); also: cyclic constrained)
T25 peptide: ARGRVTDGFSSLK
How it was run: as §1

ApoC3 peptide … V43R = target: T26, ApoC3 peptide … V43R (human, not fully specified (bridges); also: cyclic constrained)
T26 peptide: ARGWRTDGFSSLK
How it was run: as §1

ApoC3 peptide … S49T = target: T27, ApoC3 peptide … S49T (human, not fully specified (bridges); also: cyclic constrained)
T27 peptide: ARGWVTDGFSTLK
How it was run: as §1

ApoC3 peptide … S48V = ApoC3 peptide … S48V (human, cyclic constrained)
How it was run: as §1

ApoC3 peptide … S49W = target: T28, ApoC3 peptide … S49W (human, not fully specified (bridges); also: cyclic constrained)
T28 peptide: ARGWVTDGFSWLK
How it was run: as §1

ApoC3 peptide … L50W = target: T29, ApoC3 peptide … L50W (human, not fully specified (bridges); also: cyclic constrained)
T29 peptide: ARGWVTDGFSSWK
How it was run: as §1

% of binding to wild-type peptide (ApoC3 peptide … T44A): 0% | % of binding to wild-type peptide (ApoC3 peptide … S49A): 2.43% | % of binding to wild-type peptide (ApoC3 peptide … R40C): 62.3% | % of binding to wild-type peptide (ApoC3 peptide … W42D): 108% | % of binding to wild-type peptide (ApoC3 peptide … F47D): 0% | % of binding to wild-type peptide (ApoC3 peptide … S48D): 71.6% | % of binding to wild-type peptide (ApoC3 peptide … V43E): 0% | % of binding to wild-type peptide (ApoC3 peptide … G41F): 10.8% | % of binding to wild-type peptide (ApoC3 peptide … V43F): 68.9% | % of binding to wild-type peptide (ApoC3 peptide … S48F): 9.29% | % of binding to wild-type peptide (ApoC3 peptide … K51G): 5.77% | % of binding to wild-type peptide (ApoC3 peptide … R40H): 44.4% | % of binding to wild-type peptide (ApoC3 peptide … S49I): 0% | % of binding to wild-type peptide (ApoC3 peptide … A39K): 72.9% | % of binding to wild-type peptide (ApoC3 peptide … L50K): 0.74% | % of binding to wild-type peptide (ApoC3 peptide … T44L): 0.5% | % of binding to wild-type peptide (ApoC3 peptide … V43M): 20.9% | % of binding to wild-type peptide (ApoC3 peptide … F47M): 0% | % of binding to wild-type peptide (ApoC3 peptide … V43N): 1.36% | % of binding to wild-type peptide (ApoC3 peptide … T44P): 0% | % of binding to wild-type peptide (ApoC3 peptide … K51P): 0.24% | % of binding to wild-type peptide (ApoC3 peptide … A39Q): 104% | % of binding to wild-type peptide (ApoC3 peptide … W42Q): 93.1% | % of binding to wild-type peptide (ApoC3 peptide … L50Q): 0.12% | % of binding to wild-type peptide (ApoC3 peptide … W42R): 141% | % of binding to wild-type peptide (ApoC3 peptide … V43R): 15.1% | % of binding to wild-type peptide (ApoC3 peptide … S49T): 6.21% | % of binding to wild-type peptide (ApoC3 peptide … S48V): 45.3% | % of binding to wild-type peptide (ApoC3 peptide … S49W): 0.27% | % of binding to wild-type peptide (ApoC3 peptide … L50W): 17.7%
B1: anti-ApoC3 antibody 14C7 (antibody, V domains shown)
VH: QVQVQESGPGLVKPSQTLSLTCTVSGGSITTNSYYWSWIRQPPGKGLEWMGAIDYSGDTYYSPSLKSRTSISRDTSKNQFTLQLTSVTPEDTAVYYCVSRIPTGEYWGQGTQVTVSS
VL: QTVVTQEPSLSVSPGGTVTLTCGLNSGSVTSSNYPDWYQQTPGQAPRLLIYNTNSRHSGVPSRFSGSISGNKAALTITGAQPEDEADYYCALYMGSDSVVFGGGTHLTVL
notes: it was detected with goat anti-human IgG (Fc); also called mAb 14C7; llama antibody 14C7
